# B1: library; numbered along this chain (parent)
# chain: MAAAAAAAAEQQSSNGPVKKSMREKAVERRSVNKEHNSNFKAGYIPIDEDRLHKTGLRGRKGNLAICVIILLFILAVINLIITLVIWAVIRIGPNGCDSMEFHESGLLRFKQVSDMGVIHPLYKSTVGGRRNENLVITGNNQPIVFQQGTTKLSVENNKTSITSDIGMQFFDPRTQNILFSTDYETHEFHLPSGVKSLNVQKASTERITSNATSDLNIKVDGRAIVRGNEGVFIMGKTIEFHMGGNMELKAENSIILNGSVMVSTTRLPSSSSGDQLGSGDWVRYKLCMCADGTLFKVQVTSQNMGCQISDNPCGNTH
# Variants of: B1
# Assay: SGCB cell-surface expression functional score (HA stain, bin4 vs bin1, normalised to synonymous) (log10 ratio); higher = more cell-surface SGCB (functional)
# Outline: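 Human beta-sarcoglycan, tagged with HA and fused to YFP, was built into codon-saturation libraries and delivered by lentivirus at MOI <0.1 into HEK293 cells that stably express alpha-, gamma- and delta-sarcoglycan. After 72 hours, YFP-positive cells were sorted and grown for 5–7 days, then stained on ice with Alexa Fluor 647 anti-HA, fixed, sorted into four 5% intensity bins and amplicon-sequenced. Each variant's functional score is the log ratio of its frequency in the highest bin to that in the lowest bin, taken as the median across codons and transductions. Transductions were done in duplicate, and synonymous variants were scaled per section to mean 0, SD 0.5.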
row,Variant,SGCB cell-surface expression functional score (log10)
1,MAAAAAAAAEQQSSNGPVKKSMREKAVERRSVNKEHNSNFKAGYIPIDEDRLHKTGLRGRKGNLAICVIILLFILAVINLIITLVIWAVIRIGPNGCDSMEFHESGLLRFKQVSDMGVIHPLYKSTVGGRRNENLVITGNNQPIVFQQGTTKLSVENNKTSITSDIGMQFFDPRTQNILFSTDYETHEFHCPSGVKSLNVQKASTERITSNATSDLNIKVDGRAIVRGNEGVFIMGKTIEFHMGGNMELKAENSIILNGSVMVSTTRLPSSSSGDQLGSGDWVRYKLCMCADGTLFKVQVTSQNMGCQISDNPCGNTH [L191C],-0.5
2,MAAAAAAAAEQQSSNGPVKKSMREKAVERRSVNKEHNSNFKAGYIPIDEDRLHKTGLRGRKGNLAICVIILLFILAVINLIITLVIWAVIRIGPNGCDSMEFHESGLLRFKQVSDMGVIHPLYKSTVGGRRNENLVITGNNQPIVFQQGTTKLSVENNKTSITSDIGMQFFDPRTQNILFSTDYETHEFHGPSGVKSLNVQKASTERITSNATSDLNIKVDGRAIVRGNEGVFIMGKTIEFHMGGNMELKAENSIILNGSVMVSTTRLPSSSSGDQLGSGDWVRYKLCMCADGTLFKVQVTSQNMGCQISDNPCGNTH [L191G],-1.07
3,MAAAAAAAAEQQSSNGPVKKSMREKAVERRSVNKEHNSNFKAGYIPIDEDRLHKTGLRGRKGNLAICVIILLFILAVINLIITLVIWAVIRIGPNGCDSMEFHESGLLRFKQVSDMGVIHPLYKSTVGGRRNENLVITGNNQPIVFQQGTTKLSVENNKTSITSDIGMQFFDPRTQNILFSTDYETHEFHEPSGVKSLNVQKASTERITSNATSDLNIKVDGRAIVRGNEGVFIMGKTIEFHMGGNMELKAENSIILNGSVMVSTTRLPSSSSGDQLGSGDWVRYKLCMCADGTLFKVQVTSQNMGCQISDNPCGNTH [L191E],-1.09
4,MAAAAAAAAEQQSSNGPVKKSMREKAVERRSVNKEHNSNFKAGYIPIDEDRLHKTGLRGRKGNLAICVIILLFILAVINLIITLVIWAVIRIGPNGCDSMEFHESGLLRFKQVSDMGVIHPLYKSTVGGRRNENLVITGNNQPIVFQQGTTKLSVENNKTSITSDIGMQFFDPRTQNILFSTDYETHEFHIPSGVKSLNVQKASTERITSNATSDLNIKVDGRAIVRGNEGVFIMGKTIEFHMGGNMELKAENSIILNGSVMVSTTRLPSSSSGDQLGSGDWVRYKLCMCADGTLFKVQVTSQNMGCQISDNPCGNTH [L191I],-0.16
5,MAAAAAAAAEQQSSNGPVKKSMREKAVERRSVNKEHNSNFKAGYIPIDEDRLHKTGLRGRKGNLAICVIILLFILAVINLIITLVIWAVIRIGPNGCDSMEFHESGLLRFKQVSDMGVIHPLYKSTVGGRRNENLVITGNNQPIVFQQGTTKLSVENNKTSITSDIGMQFFDPRTQNILFSTDYETHEFHFPSGVKSLNVQKASTERITSNATSDLNIKVDGRAIVRGNEGVFIMGKTIEFHMGGNMELKAENSIILNGSVMVSTTRLPSSSSGDQLGSGDWVRYKLCMCADGTLFKVQVTSQNMGCQISDNPCGNTH [L191F],-0.08
6,MAAAAAAAAEQQSSNGPVKKSMREKAVERRSVNKEHNSNFKAGYIPIDEDRLHKTGLRGRKGNLAICVIILLFILAVINLIITLVIWAVIRIGPNGCDSMEFHESGLLRFKQVSDMGVIHPLYKSTVGGRRNENLVITGNNQPIVFQQGTTKLSVENNKTSITSDIGMQFFDPRTQNILFSTDYETHEFHAPSGVKSLNVQKASTERITSNATSDLNIKVDGRAIVRGNEGVFIMGKTIEFHMGGNMELKAENSIILNGSVMVSTTRLPSSSSGDQLGSGDWVRYKLCMCADGTLFKVQVTSQNMGCQISDNPCGNTH [L191A],-1.71
7,MAAAAAAAAEQQSSNGPVKKSMREKAVERRSVNKEHNSNFKAGYIPIDEDRLHKTGLRGRKGNLAICVIILLFILAVINLIITLVIWAVIRIGPNGCDSMEFHESGLLRFKQVSDMGVIHPLYKSTVGGRRNENLVITGNNQPIVFQQGTTKLSVENNKTSITSDIGMQFFDPRTQNILFSTDYETHEFHHPSGVKSLNVQKASTERITSNATSDLNIKVDGRAIVRGNEGVFIMGKTIEFHMGGNMELKAENSIILNGSVMVSTTRLPSSSSGDQLGSGDWVRYKLCMCADGTLFKVQVTSQNMGCQISDNPCGNTH [L191H],-1.37
8,MAAAAAAAAEQQSSNGPVKKSMREKAVERRSVNKEHNSNFKAGYIPIDEDRLHKTGLRGRKGNLAICVIILLFILAVINLIITLVIWAVIRIGPNGCDSMEFHESGLLRFKQVSDMGVIHPLYKSTVGGRRNENLVITGNNQPIVFQQGTTKLSVENNKTSITSDIGMQFFDPRTQNILFSTDYETHEFHDPSGVKSLNVQKASTERITSNATSDLNIKVDGRAIVRGNEGVFIMGKTIEFHMGGNMELKAENSIILNGSVMVSTTRLPSSSSGDQLGSGDWVRYKLCMCADGTLFKVQVTSQNMGCQISDNPCGNTH [L191D],-1.17
9,MAAAAAAAAEQQSSNGPVKKSMREKAVERRSVNKEHNSNFKAGYIPIDEDRLHKTGLRGRKGNLAICVIILLFILAVINLIITLVIWAVIRIGPNGCDSMEFHESGLLRFKQVSDMGVIHPLYKSTVGGRRNENLVITGNNQPIVFQQGTTKLSVENNKTSITSDIGMQFFDPRTQNILFSTDYETHEFHKPSGVKSLNVQKASTERITSNATSDLNIKVDGRAIVRGNEGVFIMGKTIEFHMGGNMELKAENSIILNGSVMVSTTRLPSSSSGDQLGSGDWVRYKLCMCADGTLFKVQVTSQNMGCQISDNPCGNTH [L191K],-0.32
10,MAAAAAAAAEQQSSNGPVKKSMREKAVERRSVNKEHNSNFKAGYIPIDEDRLHKTGLRGRKGNLAICVIILLFILAVINLIITLVIWAVIRIGPNGCDSMEFHESGLLRFKQVSDMGVIHPLYKSTVGGRRNENLVITGNNQPIVFQQGTTKLSVENNKTSITSDIGMQFFDPRTQNILFSTDYETHEFYLPSGVKSLNVQKASTERITSNATSDLNIKVDGRAIVRGNEGVFIMGKTIEFHMGGNMELKAENSIILNGSVMVSTTRLPSSSSGDQLGSGDWVRYKLCMCADGTLFKVQVTSQNMGCQISDNPCGNTH [H190Y],0.55
